Reference: the nanobody polyreactivity screen of Harvey et al. (2022)

Assay: yeast display, Sf9 membrane polyspecificity reagent, FACS + sequencing; frameworks hold sequencing errors
In short: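 In a synthetic yeast display library (Saccharomyces cerevisiae BJ5465), nanobody expression was induced with galactose for 36–48 hours. FACS gates were set low and high (top ~1%) using anti-HA fluorescence for expression and streptavidin fluorescence for binding of the Sf9 membrane reagent. Each polyreactivity label is drawn from the gate of origin.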
For “QVQLVESGGGLVQAGGSLRLSCAASGIIFDSNVMGWYRQAPGKERELVAAISRSGSRTYYADSVKGRFTISRDNSKNTVYLEMNSLKPEDTAVYYCATDSHTADEYEHWGQGTQVTVSS”, the “polyreactivity (PSR sort gate)” value was “high polyreactivity”. In the case of “QVQLVESGGGLVQAGGSLRLSCAASGIIFDTNDIGWYRLGPGKERELVATITQRGGTTYYADSVKGRFTISRDNATNTVYLQMNSLKPEDTAVYYCDADRRSKYDYWGQGTQVSVSS”, the “polyreactivity (PSR sort gate)” value is reported as “low polyreactivity”. With “QVQLVESGGGLVQAGGSLRLSCAASGIIFDWYTMGWYRQAPGKERELVAAISWRGGRTYYADSVKGRFTISRDNAKNTVYLQMNSLKPEDTAVYYCAAEAPVQPFYVFNTGIYELDYWGQGTQVTVSS” the “polyreactivity (PSR sort gate)” value was “low polyreactivity”. For “QVQLVESGGGLVQAGGSLRLSCAASGIIFDYNAMGWYRQAPGKERELVAAISGRSGRTYYADSVKGRFTISRDNAKNTVYLQMNSLKPEDTAVYYCAARWYAGGNYWGQGTQVTVSS”, the “polyreactivity (PSR sort gate)” value was “high polyreactivity”. With “QVQLVESGGGLVQAGGSLRLSCAASGIIFELYAMGWYRQAPGKERELVAAISISGDSTYYADSVTGRFTISRDTAKNTVYLQMKSLKPEDTAVYYCAKQSYRWPYLVTKYYEYDYWGQGTQVTVSS” the “polyreactivity (PSR sort gate)” value was “low polyreactivity”. With “QVQLVESGGGLVQAGGSLRLSCAASGIIFENYAMGWYRQAPGKERELVAAINKRGSRTYFADSVTGRFTISRDNAKNTVYLQMNSLKPEDTAVYYCNAVNPYYAPTDRRVGYDYWGQGTQVTVSS” the “polyreactivity (PSR sort gate)” value was “high polyreactivity”. For “QVQLVESGGGLVQAGGSLRLSCAASGIIFERYAMGWYRQAPGKERELVATISWSGGSTRYADSVKGRFTISRDNAKNTVYLQMNSLKPEDTAVYYCAAPSYFRMGYWGQGTQVTVSS”, the “polyreactivity (PSR sort gate)” value was “low polyreactivity”. In the case of “QVQLVESGGGLVQAGGSLRLSCAASGIIFESYAMGSYRQAPGKEREFVAAISSRGGSTYYADSVKGRFTISRDNAKNTVYLQMNSLKPEDTAVYYCAARGYRRTFDYREYDSWGQGTQVTVSS”, the “polyreactivity (PSR sort gate)” value is reported as “low polyreactivity”. With “QVQLVESGGGLVQAGGSLRLSCAASGIIFESYAMGWYRPAPGKERELVAAISWDGGSTYYADSVKGRFTISRDNAKNTVYLQMNSQKPEDTAVYYCAAESYGIYDGYDYWGQGTQVTVSS” the “polyreactivity (PSR sort gate)” value was “high polyreactivity”. For “QVQLVESGGGLVQAGGSLRLSCAASGIIFEYYAMGWYIQAPGKERELVAAISSDTSTNYADSVKGRFTISRDNAKNTVYLQMNSLKPEDTAVYYCNADAYYDTYGIGVGTDYDYWGQGTQVTVSS”, the “polyreactivity (PSR sort gate)” value was “low polyreactivity”. In the case of “QVQLVESGGGLVQAGGSLRLSCAASGIIFEYYAMGWYRQAPGKERELVAAITWNGGRTYYADSVKGRFTISRDNAKNTVYLQMNSLKPEDTAVYYCAARKPRSGGPFDYWGQGTQVTVSS”, the “polyreactivity (PSR sort gate)” value is reported as “high polyreactivity”. With “QVQLVESGGGLVQAGGSLRLSCAASGIIFFHYAMGWYRQAPGKERELVAAITWSGGSTYYADSVKGRFTISRDNAKNTVYLKMNSLKPEDSAVYYCNAVLHRRLYDYWGQGPQVTVSS” the “polyreactivity (PSR sort gate)” value was “high polyreactivity”. For “QVQLVESGGGLVQAGGSLRLSCAASGIIFFRYAMGWYRQAPGKERELVAAISLSGGRTYYADSVKGRFTISRDNANNTVYLQMNSVKPEDTAVYYCNTLHRYSSQRYDYWGQGTQVTVSS”, the “polyreactivity (PSR sort gate)” value was “high polyreactivity”. With “QVQLVESGGGLVQAGGSLRLSCAASGIIFFYNAMGWYRQAPGKERELVAAIRRGGRTNYADSVKGRFTISRDNAKNTVYLQMNSLKPEDTAVYYCNKDFYPGDYWGQGTQVTVSS” the “polyreactivity (PSR sort gate)” value was “low polyreactivity”. In the case of “QVQLVESGGGLVQAGGSLRLSCAASGIIFFYNAMGWYRQAPGKERELVAAITIGGITYADSVKGRFTISRDNAKNTVYLQMNSLNPEDTAVYYCNKRTDSDSGHWEHDYWGQGTQVTVSS”, the “polyreactivity (PSR sort gate)” value is reported as “low polyreactivity”. In the case of “QVQLVESGGGLVQAGGSLRLSCAASGIIFFYYAMGWYRQAPGKERELVAANSSDGSTYYADSVKGRFTISRDNAKNTVYLQMNSLKPEDTAVYYCAVDHYSARLLARYDYWGQGTQVTVSS”, the “polyreactivity (PSR sort gate)” value is reported as “low polyreactivity”. For “QVQLVESGGGLVQAGGSLRLSCAASGIIFFYYAMGWYRQAPGKERELVASISSGGSTNYADSVKGRFTISRDNAKNTVYLQMNSLKPEDTALYYCAARRYYVRIQGYKLDYWGHGTQVTVSS”, the “polyreactivity (PSR sort gate)” value was “low polyreactivity”. In the case of “QVQLVESGGGLVQAGGSLRLSCAASGIIFGDNAMGLYRQEPGKERELVATISSSASTNYADSVKGRFTISRDNAKNTVYLQMNSLKPEDTAVYYCAADVYSPPNYDYWGQGTQVTVSS”, the “polyreactivity (PSR sort gate)” value is reported as “low polyreactivity”. For “QVQLVESGGGLVQAGGSLRLSCAASGIIFGFNTMGWYRQAPGKERELVAAINGSDGSTYADSVKGRFTISRDNAKNTVYLLMNSLKPEDTAVYYCAARYGSRKEYTYADMDYWGQGTQVTVSS”, the “polyreactivity (PSR sort gate)” value was “low polyreactivity”. In the case of “QVQLVESGGGLVQAGGSLRLSCAASGIIFGGYAMGWYRQAPGKERELVARITSGGSTNYADSVKGRFTISRDNAKNTVYLQMNSLKPEDTAVYYCAARSFWKWGYYYWGQGTQVTVSS”, the “polyreactivity (PSR sort gate)” value is reported as “high polyreactivity”. In the case of “QVQLVESGGGLVQAGGSLRLSCAASGIIFGGYAMGWYRQAPGKERELVARITSGGSTNYADSVKGRFTISRDNAKNTVYLQMNSLKPEDTAVYYCNARGGWSWRFYYWGQGTQVTVSS”, the “polyreactivity (PSR sort gate)” value is reported as “high polyreactivity”. With “QVQLVESGGGLVQAGGSLRLSCAASGIIFGGYDMGWYRQAPGKERELVAGIRSGGSTYYADSVKGRFTISRDNAKNTVYLQMNSLKPEDTAVYYCAADSYTEVDYWGQGSQVTVSS” the “polyreactivity (PSR sort gate)” value was “low polyreactivity”. In the case of “QVQLVESGGGLVQAGGSLRLSCAASGIIFGGYTMGWSRQAPGKERELVAAISWSGVGTYYADSVKGRFTISRDNAKNTVYLQMNSLKPEDTAVYYCAAWAYYSDDDEYWGQGTQVTVSS”, the “polyreactivity (PSR sort gate)” value is reported as “high polyreactivity”. In the case of “QVQLVESGGGLVQAGGSLRLSCAASGIIFGHYDMGWYRQAPGKERELVAAITFTGDSTYYADSVKGRFTISRDNAKNTVYLQMNSLKPEDTAVYYCAAETPVPWGSWGYDYWGQGTQVTVSS”, the “polyreactivity (PSR sort gate)” value is reported as “low polyreactivity”. In the case of “QVQLVESGGGLVQAGGSLRLSCAASGIIFGKNAMGWYRQAPGKERELVAAISSSGGSTYYADSVKGRFTISRDNAKNTVYLQMNSLKPEDTAVYYCATERGSRRSGSRMDYWGQGTQVTVSS”, the “polyreactivity (PSR sort gate)” value is reported as “high polyreactivity”. For “QVQLVESGGGLVQAGGSLRLSCAASGIIFGKYAMGGYRQAPGKERELVAAISSSGGRTYYADSGKGRFTISRDNAKNNVYLQMNSLKPEDTAVYYCAAVPGPGYYHYGYWGQGTQVTVSS”, the “polyreactivity (PSR sort gate)” value was “high polyreactivity”. In the case of “QVQLVESGGGLVQAGGSLRLSCAASGIIFGQNAMGWSRQSPGKESEVVAAITISGGSTYYADSVKGRFTISRDNAKNTVYLQMNSLKPEDTAVYYCAARRVTWKVIARGYRYGYWGQGTQVTVSS”, the “polyreactivity (PSR sort gate)” value is reported as “low polyreactivity”. With “QVQLVESGGGLVQAGGSLRLSCAASGIIFGRYAMGWYRQAPGKERELVAAISARGGSTYYADSVKGRFTISRDNAKNTVYLHMNSLKPEDTAVYYCAARAVYTQKRYDSWGQGTQVTVSS” the “polyreactivity (PSR sort gate)” value was “high polyreactivity”. For “QVQLVESGGGLVQAGGSLRLSCAASGIIFGRYAMGWYRQAPGKERELVAVISRSGGSTYYADSVKGRFTISRDNAKNTVYLQMNSLKPEDTAVYYCAARYTPTYNAGLDYWGQGTQVTVSS”, the “polyreactivity (PSR sort gate)” value was “high polyreactivity”. With “QVQLVESGGGLVQAGGSLRLSCAASGIIFGRYDMGWYRQAPGKERELVAAITWSGGTTYYADSVKGRFTISRDNAKNTVYLQMNSLKPADTAVYYCNAVGRYSEDGYWGQGTQVTVSS” the “polyreactivity (PSR sort gate)” value was “high polyreactivity”. For “QVQLVESGGGLVQAGGSLRLSCAASGIIFGSYAMGWYRQAPGKERELVAGISKIGGRTYYADSVKGRFTISRDNAKNTVYLQMNSLKPEDTAVYYCNKVRTRERTDYDYWGQGTQVTVSS”, the “polyreactivity (PSR sort gate)” value was “low polyreactivity”. In the case of “QVQLVESGGGLVQAGGSLRLSCAASGIIFGSYAMGWYRQAPGKERELVAGISRRGDSTYYADSVKGRFTISRDNAKNTVYLQMNSLNPEDTAVYYCAADRYLYFYWWPHVGGSPTYGYWGQGTQVTVSS”, the “polyreactivity (PSR sort gate)” value is reported as “high polyreactivity”. In the case of “QVQLVESGGGLVQAGGSLRLSCAASGIIFGTYVMGWYRQAPGKERELVAAINRSGGNTYYADSVKGRFTISRDNEKNTVYLQMNSLKPEDTAVYYCAAEEAYRSRRGGFDYWGQGTQVTVSS”, the “polyreactivity (PSR sort gate)” value is reported as “high polyreactivity”. In the case of “QVQLVESGGGLVQAGGSLRLSCAASGIIFGYYAMGWYRQAPGKERELVAAINQDGSSTYYADSVKGRFTISRDNAKNTVYFQMNSLKPEDTAVYYCNARGVPRQDARMGYWGQGTQVTVSS”, the “polyreactivity (PSR sort gate)” value is reported as “low polyreactivity”. In the case of “QVQLVESGGGLVQAGGSLRLSCAASGIIFGYYAMGWYRQAPGKERELVAAISRRGGSTYYADSVKGRFTISRDNAKNTVYLQMNSLKPEDTAVYYCAAVELRLSTPDMESWGQGTQVTVSS”, the “polyreactivity (PSR sort gate)” value is reported as “high polyreactivity”. With “QVQLVESGGGLVQAGGSLRLSCAASGIIFGYYAMGWYRQAPGKERELVAAITSGTSTYYADSVKGRFTISRDNAKNTVYLQMNSLKPEDTAVYYCNIVRRYGDEDSWGQGTQVTVSS” the “polyreactivity (PSR sort gate)” value was “high polyreactivity”. With “QVQLVESGGGLVQAGGSLRLSCAASGIIFGYYAMGWYRQAPGKERELVAGITYRTGSTYYADSVKGRFTISRDNAKNTVYLQMNFLKPEDTAVYYCAATQYKRKYSSWYYYWGQGTQVTVSS” the “polyreactivity (PSR sort gate)” value was “high polyreactivity”. With “QVQLVESGGGLVQAGGSLRLSCAASGIIFHIYAMGWYRQAPGTERELVAAISTGSSTYYADSVKGRFTISRDNAKNTVYLQMNSLKPEDTAVYYCNAVSRYLWVKGFDYWGQGTQVTVSS” the “polyreactivity (PSR sort gate)” value was “low polyreactivity”. For “QVQLVESGGGLVQAGGSLRLSCAASGIIFHYYAMGWYRQAPGKEREFVASISFSGSSTYYADSVKGRFTISRDNAKNTVYLQMNSLKPEDTAVYYCAARYLYGPKYYYWGQGTQVTVSS”, the “polyreactivity (PSR sort gate)” value was “high polyreactivity”. With “QVQLVESGGGLVQAGGSLRLSCAASGIIFHYYAMGWYRQAPGKERELVAAISGSGGSTYYADSVKGRFTISRDNAKNTVYLQMNSLKPEDTAVYYCAAKLWGGGGYWGQGTQVTVSS” the “polyreactivity (PSR sort gate)” value was “high polyreactivity”. In the case of “QVQLVESGGGLVQAGGSLRLSCAASGIIFHYYAMGWYRQAPGKERELVATISWDGGNTYYADSVKGRFTISRDNAKNSVYLKMNSLKPEDTAVYYCNVYDKAPAYDYWGQGTQVTVSS”, the “polyreactivity (PSR sort gate)” value is reported as “low polyreactivity”. With “QVQLVESGGGLVQAGGSLRLSCAASGIIFIFYDMGWYRQAPGKERELVATITSGTNTYADSVKGRFTISRDNAKNTVFLQMNSLKPEDTGVYYCAAGFSPASQLDYWGQGSQVTVSS” the “polyreactivity (PSR sort gate)” value was “low polyreactivity”. In the case of “QVQLVESGGGLVQAGGSLRLSCAASGIIFIKYSMGWYRQAPGKERELVAAITSGGSTHYADSVKGRFTISRDNAKNTVYLQMNSLKPEDTAVYYCYADILRHVAYFKDRYQAGSYWGQGTQVTVSS”, the “polyreactivity (PSR sort gate)” value is reported as “low polyreactivity”.
